The results in this text go back to PMC9249324.

What all share (assay): MST
Experiment [1] addresses MBP-Mpp83Aa1 (native) (Bacillus thuringiensis).
Experiment [2] concerns the target MBP-Mpp83Aa1 modified with ABP5 at AA172-178 (Bacillus thuringiensis).
Experiment [3] concerns the target MBP-Mpp83Aa1 modified with ABP5 at AA70-76 (Bacillus thuringiensis).
For experiment [4], the target named is MBP-Mpp83Aa1 modified with ABP5 at AA224-230 (Bacillus thuringiensis).

As for “Recombinant N. viridula aminopeptidase N (enzyme)”, the Kd in experiment [1] came to 139 nM; in experiment [2] it was 4.98 nM; in experiment [3], 123 nM; in experiment [4], 187 nM.
